Source: patent US20240132615A1 (ICHNOS SCIENCES, published 2024)
Substitutions are numbered along the chain they refer to.

T1: recombinant human BCMA protein (Acrobiosystems BCA-H522y) (human, UniProt Q02223 1-54)
T1 construct: bought protein
T1 sequence (looked up): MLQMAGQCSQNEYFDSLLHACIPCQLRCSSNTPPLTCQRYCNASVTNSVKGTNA

B1: 83A10-TCBcv (bispecific antibody, human IgG1, kappa, L234A L235A)
chain 1: not shown
chain 2: not shown
chain 3: not shown
chain 4: EVQLLESGGGLVQPGGSLRLSCAASGFTFSTYAMNWVRQAPGKGLEWVSRIRSKYNNYATYYADSVKGRFTISRDDSKNTLYLQMNSLRAEDTAVYYCVRHGNFGNSYVSWFAYWGQGTLVTVSSASVAAPSVFIFPPSDEQLKSGTASVVCLLNNFYPREAKVQWKVDNALQSGNSQESVTEQDSKDSTYSLSSTLTLSKADYEKHKVYACEVTHQGLSSPVTKSFNRGEC
notes: CD3xBCMA bispecific comparator; also called EM-801; CD3xBCMA benchmark
B2: anti-BCMA-PP02-B4 FAB (Fab, V domains shown)
VH: EVQLLESGGGLVQPGGSLRLSCAASGFTFSNYDMSWVRQAPGKGLEWVSAISVSGDFTQYADSVKGRFTISRDNSKNTLYLQMNSLRAEDTAVYYCARVGYYLLDSAFDIWGQGTLVTVSS
VL: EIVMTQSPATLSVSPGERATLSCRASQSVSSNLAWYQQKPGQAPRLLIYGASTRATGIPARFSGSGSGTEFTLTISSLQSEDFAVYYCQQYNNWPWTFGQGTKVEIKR
notes: Fab
B3: anti-BCMA-PP02-E6 FAB (Fab, V domains shown)
VH: EVQLLESGGGLVQPGGSLRLSCAASGFTFSYYAMTWVRQAPGKGLEWVSTISQNGGQTKYADSVKGRFTISRDNSKNTLYLQMNSLRAEDTAVYYCARSPYSYLHGYYGFDYWGQGTLVTVSS
VL: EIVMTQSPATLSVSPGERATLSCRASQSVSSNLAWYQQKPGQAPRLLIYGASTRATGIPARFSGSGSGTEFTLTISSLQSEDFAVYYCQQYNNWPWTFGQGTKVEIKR
notes: Fab; also called anti-BCMA-E6; anti-BCMA-E6 Fab
B4: anti-BCMA-PP02-F1 FAB (Fab, V domains shown)
VH: EVQLLESGGGLVQPGGSLRLSCAASGFSFSEYAMSWVRQAPGKGLEWVSALSLSGDVTSYADSVKGRFTISRDNSKNTLYLQMNSLRAEDTAVYYCARSPYSRVGDSYYYDYIGFDIWGQGTLVTVSS
VL: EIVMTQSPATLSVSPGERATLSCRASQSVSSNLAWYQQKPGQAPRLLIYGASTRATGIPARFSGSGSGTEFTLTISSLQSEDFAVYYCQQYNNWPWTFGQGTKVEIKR
notes: Fab
B5: anti-BCMA-PP03-C4 FAB (Fab, V domains shown)
VH: B2 VH with S30T, N31A, V53G, S54F, D56G, F57D, Q59L, V99I, L103Y, I110Y
VL: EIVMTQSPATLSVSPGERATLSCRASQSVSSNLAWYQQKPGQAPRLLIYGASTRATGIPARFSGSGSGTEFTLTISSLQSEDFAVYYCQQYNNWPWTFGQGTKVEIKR
notes: Fab
B6: anti-BCMA-PP03-E4 FAB (Fab, V domains shown)
VH: EVQLLESGGGLVQPGGSLRLSCAASGFALSYYAMSWVRQAPGKGLEWVSAISEDGGRTSYADSVKGRFTISRDNSKNTLYLQMNSLRAEDTAVYYCARASAYIPYSEFYAGFDVWGQGTLVTVSS
VL: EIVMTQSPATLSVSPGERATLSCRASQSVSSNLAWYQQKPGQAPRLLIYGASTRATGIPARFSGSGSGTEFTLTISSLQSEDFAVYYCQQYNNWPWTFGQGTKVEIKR
notes: Fab
B7: Anti-CD3-UCP06-C1 IgG1LALA (antibody, V domains shown)
VH: QVQLVQSGAEVKKPGSSVKVSCKASGGKFSRYAISWVRQAPGQGLEWMGGIIPKGGYAEYAQKFQGRVTITADESTSTAYMELSSLRSEDTAVYYCARYGYSLYMDIWGQGTLVTVSS
VL: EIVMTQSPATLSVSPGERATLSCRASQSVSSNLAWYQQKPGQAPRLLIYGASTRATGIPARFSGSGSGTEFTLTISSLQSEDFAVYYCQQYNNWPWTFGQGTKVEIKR
notes: IgG1 LALA; also called anti-CD3-C1
B8: Anti-CD3-UCP07-B2 IgG1LALA (antibody, V domains shown)
VH: EVQLVESGGGLVKPGGSLRLSCAASGFDFGKAWMAWVRQAPGKGLEWVGRIKSDFKGGDTIYAAPVKGRFTISRDDSKNTLYLQMNSLKTEDTAVYYCARGRSRGVSEFDYWGQGTLVTVSS
VL: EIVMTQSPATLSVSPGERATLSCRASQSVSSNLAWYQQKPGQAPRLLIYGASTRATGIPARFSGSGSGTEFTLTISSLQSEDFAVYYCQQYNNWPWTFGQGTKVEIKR
notes: IgG1 LALA
B9: Anti-CD3-UCP07-F3 IgG1LALA (antibody, V domains shown)
VH: EVQLLESGGGLVQPGGSLRLSCAASGFNFSGHAVGWVRQAPGKGLEWVSAISQNGGYTLYADSVKGRFTISRDNSKNTLYLQMNSLRAEDTAVYYCARAASYGLDYALDIWGQGTLVTVSS
VL: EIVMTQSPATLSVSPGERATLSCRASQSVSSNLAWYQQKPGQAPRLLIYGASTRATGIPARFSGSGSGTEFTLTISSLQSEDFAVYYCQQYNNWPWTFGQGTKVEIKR
notes: IgG1 LALA
B10: Anti-CD3-UCP07-A4 IgG1LALA (antibody, V domains shown)
VH: EVQLLESGGGLVQPGGSLRLSCAASGSTFRRYVMGWVRQAPGKGLEWVSAISQQGGYTYYADSVKGRFTISRDNSKNTLYLQMNSLRAEDTAVYYCARSSSSAFDVWGQGTLVTVSS
VL: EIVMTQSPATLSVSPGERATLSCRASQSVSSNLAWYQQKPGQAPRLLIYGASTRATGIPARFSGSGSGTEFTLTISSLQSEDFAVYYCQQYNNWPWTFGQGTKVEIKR
notes: IgG1 LALA
B11: anti-BCMA-UCP01-A8 FAB (Fab, V domains shown)
VH: QVQLVQSGAEVKKPGSSVKVSCKASGGLFNYYIINWVRQAPGQGLEWMGGIIPTYGGAGYAQKFQGRVTITADESTSTAYMELSSLRSEDTAVYYCARSSPSISGYAFDVWGQGTLVTVSS
VL: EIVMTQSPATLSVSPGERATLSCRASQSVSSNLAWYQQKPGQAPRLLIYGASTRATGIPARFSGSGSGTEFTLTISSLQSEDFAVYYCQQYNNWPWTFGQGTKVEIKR
notes: Fab
B12: anti-BCMA-UCP01-C2 FAB (Fab, V domains shown)
VH: EVQLLESGGGLVQPGGSLRLSCAASGFIFSQYDMSWVRQAPGKGLEWVSAISLLGDFTSYADSVKGRFTISRDNSKNTLYLQMNSLRAEDTAVYYCARRLTDYISGGGDGFDVWGQGTLVTVSS
VL: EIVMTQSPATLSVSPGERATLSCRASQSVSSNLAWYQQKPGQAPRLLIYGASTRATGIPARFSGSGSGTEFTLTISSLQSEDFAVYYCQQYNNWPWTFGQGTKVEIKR
notes: Fab
B13: anti-BCMA-UCP01-E8 FAB (Fab, V domains shown)
VH: QVQLVQSGAEVKKPGSSVKVSCKASGGQFSVQFISWVRQAPGQGLEWMGGIIPTSGDTYYAQKFQGRVTITADESTSTAYMELSSLRSEDTAVYYCARSVVDLSYVTGYYYMDIWGQGTLVTVSS
VL: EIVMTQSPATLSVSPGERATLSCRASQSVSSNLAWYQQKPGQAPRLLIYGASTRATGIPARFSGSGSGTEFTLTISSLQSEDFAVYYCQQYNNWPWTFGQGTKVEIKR
notes: Fab
B14: anti-BCMA-UCP01-F9 FAB (Fab, V domains shown)
VH: QVQLVQSGAEVKKPGSSVKVSCKASGYKFRTYAINWVRQAPGQGLEWMGGIVPISGETFYAQKFQGRVTITADESTSTAYMELSSLRSEDTAVYYCAREDYSDYWGQGTLVTVSS
VL: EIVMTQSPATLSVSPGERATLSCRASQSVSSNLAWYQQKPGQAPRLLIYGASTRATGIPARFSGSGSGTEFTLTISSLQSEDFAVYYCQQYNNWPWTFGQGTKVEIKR
notes: Fab
B15: anti-BCMA-PP02-C2 FAB (Fab, V domains shown)
VH: QVQLVQSGAEVKKPGSSVKVSCKASGGHFSSYAISWVRQAPGQGLEWMGGIIPQHGVPSYAQKFQGRVTITADESTSTAYMELSSLRSEDTAVYYCARVLITVDGSYGGFDYWGQGTLVTVSS
VL: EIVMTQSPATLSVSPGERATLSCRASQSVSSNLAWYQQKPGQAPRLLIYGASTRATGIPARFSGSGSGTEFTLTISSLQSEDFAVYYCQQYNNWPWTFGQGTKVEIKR
notes: Fab

Biological target: T2, human CD3 on primary human CD38-negative T cells (human, UniProt P07766 23-207; P04234 22-171; P09693 23-182)
T2 construct: whole, on cells; Native CD3 within the TCR/CD3 complex on isolated human T cells, gated CD38-negative
Assay: flow cytometry on primary human CD38-negative T cells, one-site binding fit

T2 sequence (P07766 23-207, chain 1 of 3): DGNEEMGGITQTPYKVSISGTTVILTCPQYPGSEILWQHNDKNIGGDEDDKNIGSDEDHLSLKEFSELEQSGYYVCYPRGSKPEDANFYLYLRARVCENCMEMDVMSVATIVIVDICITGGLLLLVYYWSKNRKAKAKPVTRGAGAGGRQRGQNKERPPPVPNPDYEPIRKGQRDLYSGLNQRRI
T2 sequence (P04234 22-171, chain 2 of 3): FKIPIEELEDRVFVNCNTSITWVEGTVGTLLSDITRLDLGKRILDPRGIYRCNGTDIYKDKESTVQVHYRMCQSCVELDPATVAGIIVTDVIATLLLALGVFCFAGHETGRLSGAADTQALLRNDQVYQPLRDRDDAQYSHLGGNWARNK
T2 sequence (P09693 23-182, chain 3 of 3): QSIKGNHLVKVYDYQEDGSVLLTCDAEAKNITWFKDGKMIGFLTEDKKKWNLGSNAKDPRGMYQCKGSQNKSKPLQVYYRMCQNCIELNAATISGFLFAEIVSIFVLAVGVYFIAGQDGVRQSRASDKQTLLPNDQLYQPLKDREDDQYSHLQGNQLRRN

| Binder | Kd [nM] | Max binding (RFI) |
| --- | --- | --- |
| B1 | 80 | 103000 |

Biological target: T3, recombinant cynomolgus monkey BCMA protein (Acrobiosystems BCA-C52H7) (cynomolgus monkey, UniProt A0A2K5UD97 1-53)
Assay: SPR, Fab as analyte, immobilised cynomolgus BCMA, 1:1 Langmuir

T3 sequence (A0A2K5UD97 entry or part of it): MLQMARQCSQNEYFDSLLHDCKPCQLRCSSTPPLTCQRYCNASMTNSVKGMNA

| Binder | Kd [nM] |
| --- | --- |
| B2 | 58 |
| B3 | 52 |
| B4 | 598 |
| B5 | 109 |
| B6 | 696 |

Biological target: T4, human CD3 on cells (HPB-ALL cells, primary human T cells) (human, UniProt P07766 23-207)
T4 construct: whole, on cells; only the epsilon chain is written
Assay: flow cytometry on CD4+ T cells in human PBMCs, anti-human IgG PE secondary

T4 sequence (P07766 23-207): as the sequence (P07766 23-207, chain 1 of 3) above

| Binder | EC50 (read off the curve) [nM] | binding result |
| --- | --- | --- |
| B7 | ~40 | – |
| B8 | – | no binding (tested: 800 nM) |
| B9 | – | no binding (tested: 800 nM) |
| B10 | – | no binding (tested: 800 nM) |

Biological target: T1, recombinant human BCMA protein …
Assay: SPR, Fab as analyte, immobilised human BCMA, 1:1 Langmuir

| Binder | Kd [nM] |
| --- | --- |
| B11 | 235 |
| B12 | 336 |
| B13 | 1740 |
| B14 | 617 |
| B2 | 648 |
| B15 | 915 |
| B3 | 18 |
| B4 | 145 |
| B5 | 549 |
| B6 | 582 |

Biological target: T4, human CD3 on cells (HPB-ALL cells, …)
Assay: flow cytometry, human CD4+ T cells

| Binder | MFI at 800 nM [MFI] |
| --- | --- |
| B7 | 45200 |

Biological target: T3, recombinant cynomolgus monkey BCMA …
Assay: SPR, Fab as analyte, immobilised cynomolgus BCMA

| Binder | binding result |
| --- | --- |
| B11 | no binding |
| B12 | no binding |
| B13 | no binding |
| B14 | no binding |
| B15 | no binding |
